How the values were obtained:
[1] = target: T1, MyD88 (Homo sapiens, UniProt Q99836); assay: Co-immunoprecipitation with Flag-tagged MyD88 in 293T cells; assay type: binding; details: 293T cell lysates
T1 construct: Flag; expressed in transfected cells; host or cells: 293T cells
Source text: (§1) Cells were transfected in the presence (+) or absence (−) of constructs encoding a wild-type portion of TLR4 (TLR4 wt), a mutant derivative thereof (TLR4 mut), wild-type TIRAP (TIRAP), a mutant TIRAP containing a P125H mutation (TIRAP PH), or wild-type MyD88 (MyD88), wherein each construct further encodes a Myc, Flag, or hemaglutanin (HA) tag, as indicated. Antibodies used for immunoprecipitation (IP) or immunoblot (IB) are indicated to the left of each blot.
(§2) To obtain biochemical conformation for a role of TIRAP in the TLR4 signaling pathway, TIRAP-TLR4 protein interactions were evaluated using co-immunoprecipitation experiments. […] Immunocomplexes were washed, separated by SDS-PAGE electrophoresis, and then analyzed by immunoblotting with either anti-myc antibody to look for co-immunoprecipitated TLR4 or anti-Flag antibody to confirm immunoprecipitation of Flag TIRAP or Flag TIRAP P125H. Total cell lysates (35 μg/sample) were likewise analyzed by SDS-PAGE and immunoblotting to confirm equivalent expression of the appropriate proteins in every sample. […]
(§3) Similarly, the interaction between TIRAP and MyD88 was examined. […] Direct interactions between TIRAP and the TIR domain of TLR4 was also detected using in vitro glutathione S transferase (GST) pull-down assays.

[2] = target: T2, TIR domain of TLR4 (Homo sapiens, UniProt O00206); assay: In vitro glutathione S transferase (GST) pull-down assay; assay type: binding
T2 sequence (O00206 672-815 limits assumed): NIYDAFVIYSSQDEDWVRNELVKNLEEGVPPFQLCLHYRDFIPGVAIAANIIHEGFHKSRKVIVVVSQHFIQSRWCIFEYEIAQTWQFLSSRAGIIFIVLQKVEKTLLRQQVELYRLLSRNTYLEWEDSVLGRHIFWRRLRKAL
Procedure: Similarly, the interaction between TIRAP and MyD88 was examined. 293T cells were transfected with 1.5 μg of either HA-tagged TIRAP (HA TIRAP) alone or in combination with 1.5 μg of either Flag-tagged MyD88 (Flag MyD88), Flag-tagged TIRAP (Flag-TIRAP), or Flag-tagged TIRAP P125H (Flag TIRAP PH). Immunoprecipitation and analyses of immunocomplexes as well as total cell lysates were done as described above. […] Direct interactions between TIRAP and the TIR domain of TLR4 was also detected using in vitro glutathione S transferase (GST) pull-down assays.

[3] = tested on: NF-κB promoter; assay: NF-κB-dependent luciferase reporter assay, 293T cells co-transfected with TIRAP constructs; details: 2.0 μg construct, 24 h post-transfection
Procedure: To determine the effect of various TIRAP constructs on the promoter activity of NF-κB, 293T cells were co-transfected with 2.0 μg of the indicated TIRAP construct and 0.1 μg of an NF-κB-dependent luciferase reporter gene. pcDNA3 is an empty vector control; TIRAP is a vector encoding the full length TIRAP protein; TIRAP N is a vector encoding the N-terminal domain of TIRAP; TIRAP C is a vector encoding the C terminal domain of TIRAP; and TIRAP P125H is a vector encoding a mutant form of TIRAP containing a proline to histidine mutation at amino acid position 125. Cells were harvested 24 h post-transfection and lysed for analysis in a standard luciferase reporter assay. Luciferase activity is expressed as fold induction relative to mock transfected cells (FIG. 2A).

[4] = target: T3, TLR4 (Homo sapiens, UniProt O00206); assay: Co-immunoprecipitation with Myc-tagged TLR4 in 293T cells; assay type: binding; details: 293T cell lysates, anti-Flag immunoprecipitation
T3 construct: a Myc-tagged TLR4 deletion construct lacking the ectodomain (Myc TLR4 wt); Myc; expressed in transfected cells; host or cells: 293T cells
T3 sequence (O00206 653-839 limits assumed): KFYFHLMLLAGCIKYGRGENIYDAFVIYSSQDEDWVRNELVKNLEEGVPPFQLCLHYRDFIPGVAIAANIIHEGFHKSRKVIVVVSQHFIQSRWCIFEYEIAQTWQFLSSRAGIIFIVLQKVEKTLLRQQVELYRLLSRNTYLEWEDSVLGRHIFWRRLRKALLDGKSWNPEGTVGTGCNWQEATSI
Source text: as §1
as §2, with “experiments. 293T cells were co-transfected with 4.5 μg of a Myc-tagged TLR4 deletion construct lacking the ectodomain (Myc TLR4 wt) or its mutant derivative (Myc TLR4 P714H) in the presence or absence of 1.5 μg of Flag-tagged TIRAP (Flag TIRAP) or its mutant derivative containing the P125H mutation (Flag TIRAP PH).” for “experiments.”

[5] = tested on: p58; assay: Co-immunoprecipitation with p58 in 293T cells; assay type: binding; details: 293T cell lysates
Procedure: (§4) (A) Bone marrow-derived macrophages from either wild-type (WT) or MyD88-deficient (MyD88^−/−) mice were stimulated for the indicated time periods (minutes) with either LPS or CpG, and immunoblots were performed using an antibody that specifically recognizes phosphorylated PKR (PKR-P). B and C Cells were transfected with constructs encoding Flag-tagged TIRAP and either a construct encoding an HA-tagged kinase dead mutant of PKR (HA PKR KD) or p58, as indicated. Antibodies used for immunoprecipitation (IP) or immunoblot (IB) are indicated to the left of each blot, and arrows on the right show the location of the indicated proteins.
(§5) Because TIRAP may not regulate PKR directly, the interaction between TIRAP and two other proteins, p58 and PACT, was analyzed. p58 is a tetratricopeptide repeat-containing protein that negatively regulates PKR activity (Lee 1994), and PACT is a dsRNA-binding domain-containing protein that activates PKR in response to cellular stress (Patel 19980). Lysates from 293T cells transfected with either p58-encoding vector (3.5 μg) or PACT (3.5 μg) and Flag TIRAP (1.5 μg) were subject to immunoprecipitation analyses followed by SDS-PAGE and immunoblotting with the indicated antibodies.

[6] = target: T4, TIRAP (Homo sapiens, UniProt P58753); assay: Co-immunoprecipitation of HA TIRAP with Flag TIRAP (homodimerization); assay type: binding; details: 293T cell lysates
T4 construct: Flag; expressed in transfected cells; host or cells: 293T cells
T4 sequence (P58753 1-235 isoform P58753-2): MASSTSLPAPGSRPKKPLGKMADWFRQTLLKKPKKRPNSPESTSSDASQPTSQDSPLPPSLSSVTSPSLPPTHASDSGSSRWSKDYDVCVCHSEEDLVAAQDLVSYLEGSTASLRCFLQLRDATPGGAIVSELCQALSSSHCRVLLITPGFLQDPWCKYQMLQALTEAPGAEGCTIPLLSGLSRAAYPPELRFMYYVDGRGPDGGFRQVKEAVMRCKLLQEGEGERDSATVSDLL
Source text: as §1, §2, §3

[7] = target: IRAK (Homo sapiens, UniProt P51617); assay: Association with IRAK; assay type: binding
Sequence of IRAK (P51617 whole entry, species assumed): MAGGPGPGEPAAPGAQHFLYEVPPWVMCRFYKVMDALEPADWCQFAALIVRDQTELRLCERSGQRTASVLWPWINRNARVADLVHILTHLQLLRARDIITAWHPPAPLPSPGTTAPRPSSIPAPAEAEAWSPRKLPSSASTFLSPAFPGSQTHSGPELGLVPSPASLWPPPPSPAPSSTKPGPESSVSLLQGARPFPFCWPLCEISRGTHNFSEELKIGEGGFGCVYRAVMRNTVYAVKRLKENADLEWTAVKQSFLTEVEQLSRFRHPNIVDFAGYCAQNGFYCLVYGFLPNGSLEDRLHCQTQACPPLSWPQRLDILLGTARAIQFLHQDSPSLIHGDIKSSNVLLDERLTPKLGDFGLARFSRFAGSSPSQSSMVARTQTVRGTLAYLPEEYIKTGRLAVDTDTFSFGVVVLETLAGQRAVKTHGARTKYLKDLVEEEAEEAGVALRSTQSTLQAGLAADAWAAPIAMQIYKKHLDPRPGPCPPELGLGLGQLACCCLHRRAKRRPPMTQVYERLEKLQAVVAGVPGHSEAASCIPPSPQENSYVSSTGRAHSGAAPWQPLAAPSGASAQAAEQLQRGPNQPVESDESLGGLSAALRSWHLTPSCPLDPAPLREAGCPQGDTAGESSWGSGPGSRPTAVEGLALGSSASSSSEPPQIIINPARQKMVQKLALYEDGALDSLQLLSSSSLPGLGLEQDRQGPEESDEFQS

[8] = tested on: PKR; assay: Co-immunoprecipitation with HA PKR kinase dead mutant in 293T cells; assay type: binding; details: 293T cell lysates
Procedure: as §4
To determine whether PKR and TIRAP interact, lysates from 293T cells transfected with either 3.5 μg of an HA PKR kinase dead (KD) mutant […] 1.5 μg of Flag TIRAP were subjected to immunoprecipitation analyses as described above, followed by SDS-PAGE and immunoblotting with the indicated antibodies. The PKR KD mutant rather than wild type PKR was used because overexpressing PKR induces cell death. PKR did, in fact, co-immunoprecipitate with TIRAP (FIG. 4B), further supporting the link between PKR and TIRAP established above.

[9] = target: T5, PACT (Homo sapiens, UniProt O75569); assay: Co-immunoprecipitation with PACT in 293T cells; assay type: binding; details: 293T cell lysates
T5 construct: expressed in transfected cells; host or cells: 293T cells
T5 sequence (O75569 1-313): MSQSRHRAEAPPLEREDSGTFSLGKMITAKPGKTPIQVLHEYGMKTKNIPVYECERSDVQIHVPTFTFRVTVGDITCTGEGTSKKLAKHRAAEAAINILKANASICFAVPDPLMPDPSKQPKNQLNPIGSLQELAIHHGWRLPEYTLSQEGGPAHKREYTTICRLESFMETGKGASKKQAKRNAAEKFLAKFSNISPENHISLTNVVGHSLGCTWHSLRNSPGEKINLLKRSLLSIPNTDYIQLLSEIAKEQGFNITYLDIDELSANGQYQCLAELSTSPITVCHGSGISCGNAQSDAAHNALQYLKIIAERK
Procedure: as §5

T1 sequence (Q99836 whole entry, species assumed): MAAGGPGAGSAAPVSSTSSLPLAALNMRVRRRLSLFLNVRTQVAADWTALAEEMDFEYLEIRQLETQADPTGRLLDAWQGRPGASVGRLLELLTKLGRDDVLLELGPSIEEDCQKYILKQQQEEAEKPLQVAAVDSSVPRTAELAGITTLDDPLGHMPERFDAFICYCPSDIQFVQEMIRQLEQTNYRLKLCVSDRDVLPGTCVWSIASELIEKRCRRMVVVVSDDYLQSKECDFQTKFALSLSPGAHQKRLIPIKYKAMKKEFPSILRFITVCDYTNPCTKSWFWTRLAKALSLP

## TIRAP: vector encoding the full length TIRAP protein (Toll/Interleukin-1 Receptor Adapter Protein)
[1]
  interaction with MyD88 (co-immunoprecipitation): does not interact
[2]
  direct interaction with the TIR domain of TLR4: detected
[3]
  activation of the NF-κB promoter, luciferase activity as fold induction relative to mock transfected cells: approximately 80 fold induction
[4]
  co-immunoprecipitation with TLR4: co-immunoprecipitate
[5]
  co-immunoprecipitation with p58: immunoprecipitate
[6]
  co-immunoprecipitation of TIRAP with itself (homodimerization): can be co-immunoprecipitated with itself
[7]
  association with IRAK: failed to associate
[8]
  co-immunoprecipitation with PKR: co-immunoprecipitate
[9]
  co-immunoprecipitation with PACT: immunoprecipitate

— patent US6960343B2, “Toll/interleukin-1 receptor adapter protein (TIRAP)” (Yale University School of Medicine, priority 2001, dated 2005)
